{"source": "paper PMC4388636", "binders": {"B1": {"name": "recombinant Wolbachia heat shock protein 60 (natural protein)", "chain": "MTNVVVSGEQLQEAFREVAVMVDSTVAITAGPRGKTVGINKPYGAPEITKDGYKVMKGIKPEKPLHAAITSIFAQSCFQCNDKVGDGTTTCSILTSNMIMEALKSIAAGNDRVSIKNGMQKAKDAVLEGITSMSRTIPLEKMDEVAQVAIISANGDKDIGNSIADAVKKVGKEGVITVEESKGSKELEVELTTGMQFDRGYLSPYFITSNEKMIVEFDDPYLLITEKKLSIIQPLLPILEAVVKSGKPLLIIAEDIEGEALSTLVINKLRGGLKVTAVKAPGFGDRRKEMLEDIAALTGAKYVIKDELGIKMEDLTLEDLGTAKNVKVTKDNTTIVSGSSDSDRVKARVEQIKSQIETSTSDYDKEKLRERLAKLSGGVAVLKVGGVTEVEVKERRDRVEDALHATRAAIEEGIVPGGGVALLYASSALDKLKGGSDEEQIGINIIKKVLSAPIKRLVKNAGLESAVIIDHLTKQNDKELIYNVEAMNYANAFTAGVIDPAKVVRIAFETAISVASVLITTESMIVDVPNKEENASSSMGAGGMGGMNGF"}}, "key": {"[1]": {"target": "toll like receptor-4 (human (endogenous in monocytes)) (UniProt O00206)", "sequence (O00206 24-839)": "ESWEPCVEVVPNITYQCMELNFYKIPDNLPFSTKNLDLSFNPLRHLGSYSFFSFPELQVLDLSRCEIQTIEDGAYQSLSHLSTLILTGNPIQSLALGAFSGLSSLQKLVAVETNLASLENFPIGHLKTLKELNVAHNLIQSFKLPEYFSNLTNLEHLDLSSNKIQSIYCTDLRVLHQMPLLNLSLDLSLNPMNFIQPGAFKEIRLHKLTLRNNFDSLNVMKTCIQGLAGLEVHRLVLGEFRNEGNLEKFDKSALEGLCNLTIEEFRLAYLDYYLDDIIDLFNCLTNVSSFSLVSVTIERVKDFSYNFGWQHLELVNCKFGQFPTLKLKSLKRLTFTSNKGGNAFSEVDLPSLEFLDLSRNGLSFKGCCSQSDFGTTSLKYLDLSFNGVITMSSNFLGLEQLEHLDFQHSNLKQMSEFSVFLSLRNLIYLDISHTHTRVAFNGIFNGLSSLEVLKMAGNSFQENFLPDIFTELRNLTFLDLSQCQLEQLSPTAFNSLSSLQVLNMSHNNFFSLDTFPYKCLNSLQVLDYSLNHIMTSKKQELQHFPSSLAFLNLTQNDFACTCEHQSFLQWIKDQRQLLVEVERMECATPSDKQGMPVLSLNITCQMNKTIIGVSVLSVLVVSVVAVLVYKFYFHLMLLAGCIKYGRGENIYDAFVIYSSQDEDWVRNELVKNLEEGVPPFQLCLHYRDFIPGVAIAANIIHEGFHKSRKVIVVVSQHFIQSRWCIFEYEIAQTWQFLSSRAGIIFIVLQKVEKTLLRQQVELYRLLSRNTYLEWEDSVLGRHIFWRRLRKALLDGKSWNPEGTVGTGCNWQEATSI"}, "[2]": {"target": "toll like receptor-4 (human (endogenous in monocytes)) (UniProt O00206)", "remark": "listed apart in the source"}, "[3]": {"target": "toll like receptor-4 (human (endogenous in monocytes)) (UniProt O00206)", "remark": "listed apart in the source"}, "[4]": {"target": "toll like receptor-4 (human (endogenous in monocytes)) (UniProt O00206)", "remark": "listed apart in the source"}}}
{"binder": "B1", "values": [{"measurement": "SA-β-Gal–positive (senescent) monocytes after rWmhsp60", "setting": "[1]", "value": 78, "unit": "%"}, {"measurement": "SA-β-Gal–positive (senescent) monocytes after rWmhsp60, with rapamycin pretreatment", "setting": "[1]", "value": 10, "unit": "%"}, {"measurement": "dead monocytes (annexin-V-FITC-/PI+) after 24 h with rWmhsp60", "setting": "[2]", "value": 23, "unit": "%"}, {"measurement": "dead monocytes after rWmhsp60, with pretreatment by anti-TLR-4 monoclonal antibodies for 2 h", "setting": "[2]", "value": 6.5, "unit": "%"}, {"measurement": "late apoptotic monocytes (annexin-V-FITC+/PI+) after 24 h with rWmhsp60", "setting": "[2]", "value": 18, "unit": "%"}, {"measurement": "late apoptotic monocytes after rWmhsp60, with pretreatment by anti-TLR-4 monoclonal antibodies for 2 h", "setting": "[2]", "value": 6, "unit": "%"}, {"measurement": "ROS levels in monocytes after rWmhsp60, fluorimetry with DCF2-DA, fold change", "setting": "[3]", "value": 3, "unit": "fold"}, {"measurement": "loss of mitochondrial membrane potential in monocytes after rWmhsp60, fluorimetry with TMRE, fold change", "setting": "[3]", "value": 3, "unit": "fold"}, {"measurement": "dead monocytes after rWmhsp60, with rapamycin treatment before the stimulation", "setting": "[4]", "value": 7.5, "unit": "%"}, {"measurement": "late apoptotic monocytes after rWmhsp60, with rapamycin treatment before the stimulation", "setting": "[4]", "value": 6.5, "unit": "%"}]}
